Measured values taken from the RNAGym collection of RNA variant scans (doi:10.1101/gr.219683.116).

B1: mRNA-splicing (parent)
chain: AGUUGCUGCUGGGAGCUCCAGCACAGUGAAAUGGACAGAAGGGCAGAGCAA

Variants of: B1
Experiment: exon inclusion enrichment index; higher = more inclusion; WT1 exon 5 minigene, HEK293

Variant | exon inclusion enrichment index
C6A U7C C9A U10C G34U | 1.52
C6A U7C C9A U10C G34A | 2.27
C6A U7C C9A U10C G34C | 1.79
C6A U7C C9A U10C G26U | 3.34
C6A U7C C9A U10C G26A | 3.92
C6A U7C C9A U10C G26C | 3.46
C6A U7C C9A U10C C22U A23U | 2.51
C6A U7C C9A U10C C22U A23G | 3.38
C6A U7C C9A U10C C22U A23C | 2.11
C6A U7C C9A U10C G21C C22U | 3.3
C6A U7C C9A U10C G21C C22A | 3.4
C6A U7C C9A U10C G21C C22G | 3.98
C6A U7C C9A U10C G43A C44A | 4.49
C6A U7C C9A U10C G43A C44U | 3.22
C6A U7C C9A U10C G43A C44G | 5.09
C6A U7C C9A U10C G42U | 3.3
C6A U7C C9A U10C G42C | 4.02
C6A U7C C9A U10C G42A | 4.25
C6A U7C C9A U10C G13U A14G | 2.11
C6A U7C C9A U10C G13U A14U | 2.48
C6A U7C C9A U10C G13U A14C | 2.46

Variant | exon inclusion enrichment index
C6A U7C C9A U10C C36U A37G | 2.91
C6A U7C C9A U10C C36U A37C | 2.39
C6A U7C C9A U10C C36U A37U | 1.97
C6A U7C C9A U10C A45C | 3.19
C6A U7C C9A U10C A45G | 4.95
C6A U7C C9A U10C A45U | 3.86
C6A U7C C9A U10C G33C G34A | 2.31
C6A U7C C9A U10C G33C G34C | 2.01
C6A U7C C9A U10C G33C G34U | 2.34
C6A U7C C9A U10C G26U U27A | 2.38
C6A U7C C9A U10C G26U U27G | 4.12
C6A U7C C9A U10C G26U U27C | 4
C6A U7C C9A U10C U32A | 3.06
C6A U7C C9A U10C U32C | 4.44
C6A U7C C9A U10C U32G | 0.701
C6A U7C C9A U10C C24A A25C | 4.45
C6A U7C C9A U10C C24A A25U | 2.96
C6A U7C C9A U10C C24A A25G | 2.94
C6A U7C C9A U10C G11A G12C | 2.2
C6A U7C C9A U10C G11A G12A | 2.21
C6A U7C C9A U10C G11A G12U | 1.87

Variant | exon inclusion enrichment index
C6A U7C C9A U10C G21A C22G | 3.04
C6A U7C C9A U10C G21A C22U | 2.22
C6A U7C C9A U10C G21A C22A | 2.06
C6A U7C C9A U10C G41C G42A | 2.74
C6A U7C C9A U10C G41C G42C | 3.48
C6A U7C C9A U10C G41C G42U | 3.52
C6A U7C C9A U10C U32G G33A | 1.61
C6A U7C C9A U10C U32G G33C | 3.23
C6A U7C C9A U10C U32G G33U | 1.91
C6A U7C C9A U10C G46A A47G | 1.33
C6A U7C C9A U10C G46A A47U | 2.94
C6A U7C C9A U10C G46A A47C | 3.66
C6A U7C C9A U10C A39U | 0.343
C6A U7C C9A U10C G34A A35C | 2.52
C6A U7C C9A U10C G34A A35U | 1.68
C6A U7C C9A U10C G34A A35G | 2.05
C6A U7C C9A U10C G42C G43U | 3.6
C6A U7C C9A U10C G42C G43A | 3.52
C6A U7C C9A U10C G42C G43C | 3.4
C6A U7C C9A U10C G28C A29U | 2.34
C6A U7C C9A U10C G28C A29G | 3.91

Variant | exon inclusion enrichment index
C6A U7C C9A U10C G28C A29C | 2.62
C6A U7C C9A U10C G21U C22A | 2.02
C6A U7C C9A U10C G21U C22U | 1.78
C6A U7C C9A U10C G21U C22G | 3.54
C6A U7C C9A U10C G43U C44A | 0.0402
C6A U7C C9A U10C G43U C44U | 1.21
C6A U7C C9A U10C G43U C44G | 0.567
C6A U7C C9A U10G G11A | 2.06
C6A U7C C9A U10C G33A | 0.648
C6A U7C C9A U10C G33U | 1.97
C6A U7C C9A U10C G33C | 3.45
C6A U7C C9A U10C A45G G46U | 2.89
C6A U7C C9A U10C A45G G46C | 3.3
C6A U7C C9A U10C A45G G46A | 4.93
C6A U7C C9A U10C G28A A29G | 1.98
C6A U7C C9A U10C G28A A29C | 2.55
C6A U7C C9A U10C G28A A29U | 1.29
C6A U7C C9A U10C U27G | 2.01
C6A U7C C9A U10C U27A | 3.6
C6A U7C C9A U10C U27C | 5.2
